Maximum MFI value and EC50 data for one substance are collected here from patent US20240067748A1.

For assay [1], the target named is human Trop2 on cells (human) (UniProt P09758). The assay is described as follows: flow cytometry on BxPC-3 tumor cells; negative control. For orientation: A flow cytometer gives signals particle by particle.
Assay [2] shares this target. The assay can be described thus: flow cytometry on BxPC-3 tumor cells (second panel of the table); negative control.
For assay [3], the target named is monkey Trop2 on CHO-K1 cells (monkey). The assay can be described thus: flow cytometry on CHO-K1/monkey Trop2 cells (second run); negative control.
Sequence of monkey Trop2 on CHO-K1 cells (monkey) (A0A2K5 entry or part of it limits assumed): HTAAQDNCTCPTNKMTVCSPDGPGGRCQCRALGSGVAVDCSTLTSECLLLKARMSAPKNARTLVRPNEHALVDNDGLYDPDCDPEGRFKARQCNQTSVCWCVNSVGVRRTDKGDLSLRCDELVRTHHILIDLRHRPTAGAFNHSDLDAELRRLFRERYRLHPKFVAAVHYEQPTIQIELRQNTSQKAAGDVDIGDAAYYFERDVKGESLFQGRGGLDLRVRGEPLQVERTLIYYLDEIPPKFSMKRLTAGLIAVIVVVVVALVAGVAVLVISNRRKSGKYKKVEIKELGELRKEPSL
Assay [4] shares this target. The assay is described as follows: flow cytometry on CHO-K1/monkey Trop2 cells; negative control.

Sequence of human Trop2 on cells (human) (P09758 27-323): as the sequence (A0A2K5 entry or part of it limits assumed) above, with V36M, E46K, N67S, V204I, V266M, S272T counted along it

Broadly, the EC50 is the concentration needed to bring the measured effect to its halfway point. On to hIgG1 (antibody), for which the Maximum MFI value in assay [1] was 77 MFI; in assay [2], 670 MFI; in assay [3] it was 109 MFI; in assay [4] it was 277 MFI. Moreover, in assay [4], the EC50 was determined as 1.89 µM.
